Patent US20240287172A1 (SCIRHOM, published 2024)
Positions count from the first letter of the chain named.

T1: hiR2-FL-R582A-T7 (human, UniProt Q6PJF5 1-856)
T1 sequence: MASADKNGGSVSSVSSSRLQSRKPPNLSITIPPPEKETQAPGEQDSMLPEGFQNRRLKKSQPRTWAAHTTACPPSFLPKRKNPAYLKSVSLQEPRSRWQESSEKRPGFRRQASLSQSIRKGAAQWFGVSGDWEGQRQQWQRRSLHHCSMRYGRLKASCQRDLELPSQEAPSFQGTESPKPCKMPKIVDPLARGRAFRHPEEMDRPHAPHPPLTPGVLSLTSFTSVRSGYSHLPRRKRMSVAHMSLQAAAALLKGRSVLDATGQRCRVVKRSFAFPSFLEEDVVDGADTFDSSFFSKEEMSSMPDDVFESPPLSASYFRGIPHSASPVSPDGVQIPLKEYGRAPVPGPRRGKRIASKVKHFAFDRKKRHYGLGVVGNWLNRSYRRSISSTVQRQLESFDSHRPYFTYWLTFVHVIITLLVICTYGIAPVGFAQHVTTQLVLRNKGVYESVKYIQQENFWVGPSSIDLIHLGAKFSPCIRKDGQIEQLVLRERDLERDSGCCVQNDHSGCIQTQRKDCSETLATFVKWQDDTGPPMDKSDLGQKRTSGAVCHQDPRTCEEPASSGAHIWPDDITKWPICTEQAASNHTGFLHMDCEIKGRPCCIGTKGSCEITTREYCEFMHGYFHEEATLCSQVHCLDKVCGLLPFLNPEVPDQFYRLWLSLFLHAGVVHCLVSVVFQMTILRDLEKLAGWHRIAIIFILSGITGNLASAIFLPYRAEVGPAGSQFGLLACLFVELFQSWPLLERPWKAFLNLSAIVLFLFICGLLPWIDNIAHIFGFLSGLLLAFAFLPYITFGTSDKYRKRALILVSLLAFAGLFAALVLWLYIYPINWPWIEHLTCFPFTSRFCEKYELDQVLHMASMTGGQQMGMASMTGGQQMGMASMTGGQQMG

T2: hiR2-FL-P533A-T7 (human, UniProt Q6PJF5 1-856)
T2 sequence: T1 sequence with P533A, A582R

B1: antibody 3 (antibody, V domains shown)
VH: QVTLKESGPGILQPSQTLSLTCSFSGFSLTTFAMGIGWVRQPSGKGLEWLAHIWWDGEKYNNPVLKSRLTISKDTSKNQVFLRIANVDTPDTATYYCARISSIYYIIDNWGQGTSVTVSS
VL: DIVLTQSPATLSVTPGHSVSLSCRASQSISNNLHWYQKKSHESPRLLIKYVSQSISGIPSRFSGSGSGTDFTLSINSVETEDFGMYFCQQSYNWPLTFGAGTKLELK
notes: mouse IgG, kappa light chain; also called clone #3; purified antibody 3
B2: antibody 34 (antibody, V domains shown)
VH: QVTLKESGPGILQPSQTLSLTCSFSGFSLSTFSLGVGWIRQSSGKGLEWLAHIWWDDEKYYNPALKSRLTISKDTSKNQVFLKIANVDAADTATYYCARAYYSKSYYALDYWGQGTSVTVSS
VL: DIQMTQSPSSLSASLGERVSLTCRASQEISGYLSWLQQKPDGTIKRLIYAASTLDSGVPKRFSGSRSGSDYSLAISSLESEDFADYYCLQYANFPFTFGSGTKLEIK
notes: mouse IgG, kappa light chain; also called clone #34; purified antibody 34

Legend:
hiR2-FL-R582A-T7 = biological target: T1, hiR2-FL-R582A-T7; experiment: FACS on MEF-DKO cells expressing the variant, 3 µg/ml antibody
In short: (§1)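 Pelleted cells are resuspended in antibody at 3 μg/ml and kept on ice 1 hour, washed, then incubated with PE goat anti-mouse IgG F(ab′)2 diluted 1:100 on ice for 1 hour protected from light, washed again and analysed by flow cytometry.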

hiR2-FL-P533A-T7 = biological target: T2, hiR2-FL-P533A-T7; experiment: as above
In short: as §1

| Binder | loss of binding vs wild type (hiR2-FL-R582A-T7) [%] | loss of binding vs wild type (hiR2-FL-P533A-T7) [%] |
| --- | --- | --- |
| B1 | ≥ 30 | – |
| B2 | – | ≥ 30 |
